Results on one molecule are retold here after paper PMC1713233 (2006).

The target of this experiment is T1, Trypsin Soybean Inhibitor (TSI) (Glycine max, UniProt P01070).
T1 chain: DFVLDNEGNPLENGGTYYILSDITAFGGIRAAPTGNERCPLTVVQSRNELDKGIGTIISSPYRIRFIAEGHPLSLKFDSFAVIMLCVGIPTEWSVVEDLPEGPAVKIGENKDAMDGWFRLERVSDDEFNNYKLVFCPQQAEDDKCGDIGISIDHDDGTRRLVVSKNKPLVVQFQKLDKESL
Nature of the experiment: enzyme inhibition assay (BAPNA substrate, Cheng-Prusoff).

B1: Implantation serine proteinase complex (ISP1-ISP2) (protein)
chain 1: KPVGIVGGQRTPPGKWPWQVSLRMYSYEVNSWVHICGGSIIHPQWILTAAHCIQSQDADPAVYRVQVGEVYLYKEQELLNISRIIIHPDYNDVSKRFDLALMQLTALLVTSTNVSPVSLPKDSSTFDSTDQCWLVGWGNLLQRVPLQPPYQLHEVKIPIQDNKSCKRAYRKKSSDEHKAVAIFDDMLCAGTSGRGPCFGDSGGPLVCWKSNKWIQVGVVSKGIDCSNNLPSIFSRVQSSLAWIHQHIQ
chain 2: not shown
Usually Ki stands for the dissociation constant of the complex between target and ligand, obtained from inhibition or displacement. A higher Ki goes with a looser hold on the target. The molecule B1 registered a Ki of 2180 nM.
